Experimental findings from US20220340684A1 are described below.

Assay [1] concerns the target Recombinant human TRIM21 PRYSPRY domain (His-tagged, expressed in E. coli BL21 (DE3)) (human) (UniProt P19474). Kind of assay: SPR (ProteON XPR36), antibody amine-coupled to GLC chip, TRIM21 PRYSPRY as analyte, Langmuir 1:1.
Assay [2] shares this target. Kind of assay: SPR, antibody immobilized, TRIM21 PRYSPRY as analyte. On the technique in general: In SPR one partner is held on a chip, and binding of the other changes the refractive index at the surface.
Assay [3] addresses Human TRIM21 (endogenous, cytosolic, in moDC and HeLa cells) (human) (UniProt P19474). Kind of assay: cell-based or functional assay.
In assay [4] the target is Recombinant human TRIM21 PRYSPRY domain (His-tagged, expressed in E. coli BL21 (DE3)) (human) (UniProt P19474). The experiment in a line: SPR, antibody immobilized, TRIM21 PRYSPRY as analyte; the column's head prints (M), the text gives 125 nM.
Chain of Recombinant human TRIM21 PRYSPRY domain (His-tagged, expressed in E. coli BL21 (DE3)) (human) (P19474 287-475): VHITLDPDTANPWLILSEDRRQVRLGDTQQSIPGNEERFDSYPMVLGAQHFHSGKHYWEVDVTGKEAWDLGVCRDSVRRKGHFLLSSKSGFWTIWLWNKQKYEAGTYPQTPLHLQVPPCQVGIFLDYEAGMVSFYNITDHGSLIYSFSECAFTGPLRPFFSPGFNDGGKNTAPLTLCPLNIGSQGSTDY

Chain of Human TRIM21 (endogenous, cytosolic, in moDC and HeLa cells) (human) (P19474 whole entry, the tested form may be a part): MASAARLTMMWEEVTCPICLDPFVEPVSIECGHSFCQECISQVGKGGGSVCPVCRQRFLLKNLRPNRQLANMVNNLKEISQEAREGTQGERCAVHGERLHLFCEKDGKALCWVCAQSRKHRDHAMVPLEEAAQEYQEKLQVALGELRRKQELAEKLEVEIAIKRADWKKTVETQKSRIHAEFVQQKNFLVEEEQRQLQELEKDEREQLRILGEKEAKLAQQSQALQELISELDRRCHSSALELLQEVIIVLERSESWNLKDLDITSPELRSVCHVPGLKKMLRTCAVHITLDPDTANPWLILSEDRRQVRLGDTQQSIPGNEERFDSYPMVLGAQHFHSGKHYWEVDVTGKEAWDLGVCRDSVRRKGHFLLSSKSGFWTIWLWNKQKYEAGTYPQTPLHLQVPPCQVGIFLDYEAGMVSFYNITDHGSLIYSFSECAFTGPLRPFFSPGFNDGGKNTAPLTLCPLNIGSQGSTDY

With “Fc-unmodified human IgG1 (anti-DEC205, variable domains of 3G9-2D2, wildtype human IgG1 constant regions) (antibody)”, the Kd (as a rule, the equilibrium constant for the complex coming apart) in assay [1] was 47.3 nM.
As to “V1 chimeric IgG1 (9C12 variable domains, human IgG1 with 256P/434R/436F/440I Fc) (antibody)”, the Kd in assay [2] worked out at 10.8 nM.
Still for that read-out and setting: to “V2 chimeric IgG1 (9C12 variable domains, human IgG1 with 256P/433T/436F/440I Fc) (antibody)” belongs 1620 nM.
Same read-out and setting: next, “V3 chimeric IgG1 (9C12 variable domains, human IgG1 with 256P/433T/434R/440I Fc) (antibody)”: 0.211 nM.
Still for that read-out and setting: to “V4 chimeric IgG1 (9C12 variable domains, human IgG1 with 256P/433T/434R/436F Fc) (antibody)” belongs 0.276 nM.
For the substance “V5 chimeric IgG1 (9C12 variable domains, human IgG1 with 433T/434R/436F/440I Fc, Thr at 256) (antibody)”, the Kd in assay [2] is 23.5 nM.
In assay [3], “Wildtype chimeric IgG1 (anti-Ad5 hexon, mouse 9C12 variable domains, wildtype human IgG1 constant regions) (antibody)” returned an IC50 of ADIN of Ad5-eGFP infection in moDCs, MOI 400 of 3 nM and an IC50 of antibody-dependent intracellular neutralization (ADIN) of Ad5-eGFP infection in HeLa cells, MOI 1.2 of 900 nM. Further, in assay [4], the Kd came to 125 nM.
